The values below come from publication PMC9933121 (Proceedings of the National Academy of Sciences of the …, 2023).

Assay [1] concerns the target DENV2 strain 16681 premembrane (prM) protein, wild type (dengue virus 2 strain 16681).
Assay [2] has as its target trimeric prM–E spike of immature DENV2 strain 16681 virions (dengue virus 2 strain 16681). The experiment in a line: cryo-EM structure.
Assay [3] concerns the target T1, DENV2 strain 16681 premembrane (prM) protein, wild type (Dengue virus 2 strain 16681 (NC_001474)).
T1 chain: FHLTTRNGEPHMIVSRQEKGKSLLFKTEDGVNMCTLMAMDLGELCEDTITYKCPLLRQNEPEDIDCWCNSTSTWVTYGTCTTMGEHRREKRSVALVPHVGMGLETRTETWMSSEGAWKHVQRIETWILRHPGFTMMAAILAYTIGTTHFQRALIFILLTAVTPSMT
The experiment in a line: cell-based or functional assay.

B1: prM12, murine prM-reactive monoclonal antibody (IgG2c) (antibody, V domains shown)
VH: EVQLQESGPELVKPGTSVKMSCKASGYTFTDYNIHWVKQSHGKSLEWIGYINPNNGGNKYTQKFEGRATLTVGKSSSTAYMELRSLTSEDSAVYYCARSPMYFYYDGSYYFDYWGQGTSLSVSS
VL: DIVLTQSPASLAVSLGQRATISYRASKSVSTSGYSYMHWNQQKPGQPPRLLIYLVSNLESGVPARFSGSGSGTDFTLNIHPVEEEDAATYYCQHIRELTFGAAPSAAAR
B1 yielded a neutralisation of DENV2 RVPs, EC50 of the sensitive fraction of virions in assay [1] of 5 ng/mL.

B2: prM12 Fab fragment (Fab, V domains shown)
VH: EVQLQESGPELVKPGTSVKMSCKASGYTFTDYNIHWVKQSHGKSLEWIGYINPNNGGNKYTQKFEGRATLTVGKSSSTAYMELRSLTSEDSAVYYCARSPMYFYYDGSYYFDYWGQGTSLSVSS
VL: DIVLTQSPASLAVSLGQRATISYRASKSVSTSGYSYMHWNQQKPGQPPRLLIYLVSNLESGVPARFSGSGSGTDFTLNIHPVEEEDAATYYCQHIRELTFGAAPSAAAR
For B2, the occupancy in assay [2] is 100%.

B3: prM13, murine prM-reactive monoclonal antibody (IgG2c) (antibody, V domains shown)
VH: AAQLQESGPELVKPGASVKISCKASGYTFTDYFINWVRQSHGKSLEWIGDFYPNNRGPTYNQKFEGKATLTVDKSSSTAYMELRSLTSDDSAVYYCARGLWDAWLSYWGQGTLVTVSA
VL: AIVATQSPAIMSASPGEKVTISCSASSSVSYMYWYQQKPGSSPKPWIYRTSNLASGVPTRFSGSGSGTSYSFTISSMEAEDAATYYCQQYHNYPRTFGGGTKAKSA
Take B3: the “neutralisation of DENV2 RVPs, EC50 of the sensitive fraction of virions” value in assay [3] is roughly 5 ng/mL.
